# Measurements as given in US20210292393A1 (published 2021).
# Target: SARS-CoV-2 spike protein (SARS-CoV-2, UniProt P0DTC2 14-1208)
Binder,Kd [nM],koff [s⁻¹],kon [M⁻¹ s⁻¹]
"antibody 391 (antibody, V domains shown) VH: EVQLVESGGGLVQPGGSLRLSCAASGFTFSSYWMHWVRQAPGKGLVWVSRINSDGSSTSYADSVKGRFTISRDNAKNTLYLQMNSLRAEDTAVYYCALGPLDIVGSYYYYGMDVWGQGTTVTVSS VL: NFMLTQPHSVSESPGKTVTISCTGSSGSIASNYVQWYQQRPGSAPTTVIYEDNQRPSGVPDRFSGSIDSSSNSASLTISGLKTEDEADYYCQSYDSSNQDVVFGGGTKLTVL",≤ 0.37,≤ 1e-05,27000
"antibody 399 (antibody, V domains shown) VH: QVQLVQSGAEVKKPGASVKVSCKASGYTFTSYGISWVRQAPGQGLEWMGWISAYNGNTNYAQKLQGRVTMTTDTSTSTAYMELRSLRSDDTAVYYCARDSGYDWAGGHYYYYGMDVWGQGTTVTVSS VL: QSALTQPASVSGSPGQSITISCTGTSSDVGGYNYVSWYQQHPGKAPKLMIYEVSNRPSGVSNRFSGSKSGNTASLTISGLQAEDEADYYCSSYTSSSTLVVFGGGTKLTVL",≤ 0.315,≤ 1e-05,31700
"antibody 415 (antibody, V domains shown) VH: QVQLVESGGGVVQPGRSLRLSCAASGFTFSSYAMHWVRQAPGKGLEWVAVISYDGSNKYYADSVKGRFTISRDNSKNTLYLQMNSLRAEDTAVYYCAKTRGGSYFDAFDIWGQGTMVTVSS VL: not shown",≤ 0.0125,≤ 1e-05,802000
"antibody 402 (antibody, V domains shown) VH: QVQLVQSGAEVKKPGASVKVSCKVSGYTLTELSMHWVRQAPGKGLEWMGGFDPEDVETIYAQKFQGRVTMTEDTSTDTAYMELSSLRSEDTAVYYCATGVAVVGTSHSYYYYYGMDVWGQGTTVTVSS VL: DIQMTQSPSSLSASVGDRVTITCRASQGISNYLAWYQQKPGKVPKLLIYAASTLQSGVPSRFSGSGSGTDFTLTISSLQPEDVATYYCQKYNSAPFTFGPGTKVDIK",2.14,6.48e-05,30400
"antibody 410 (antibody, V domains shown) VH: QVQLVQSGAEVKKPGASVKVSCKASGYTFTSYGISWVRQAPGQGLEWMGWISAYNGNTNYAQKLQGRVTMTTDTSTSTAYMELRSLRSDDTAVYYCARGRITIFGVEYYYGMDVWGQGTTVTVSS VL: not shown",2.05,0.000329,161000
"antibody 393 (antibody, V domains shown) VH: QVQLVESGGGVVQPGRSLRLSCAASGFTFSSYAMHWVRQAPGQGLEWVAVISYDGSNKYYADSVKGRFTISRDNSKNTLYLQMNSLRAEDTAVYYCARAGSGSRHYYGMDVWGQGTTVTVSS VL: not shown",0.313,2.95e-05,94100
"antibody 394 (antibody, V domains shown) VH: QVQLVQSGAEVKKPGASVKVSCKASGYTFTGYYMHWVRQAPGQGLEWMGWINPNNGGTNSAQKFQGRVTMTRDTSISTAYMELNRLRSDDTAVYYCARDITTTAGTDYYYGMDVWGQGTTVTVSS VL: SYELTQPPSVSVSPGQTARITCSGDALPKQYAYWYQQKPGQAPVLVICKDSERPSGIPERFSGSSSGTTVTLTISGVQAEDEADYYCQSADSSGTYIVFGTGTKVTVL",1.32,3.52e-05,26600
"antibody 397 (antibody, V domains shown) VH: QVQLVESGGGVVQPGRSLRLSCAASGFTFSSYGMHWVRQAPGKGLESVAVISYDGSNKYYADSVKGRFTISRDNSKNTLYLQMNSLRAEDTAVYYCAKEGQWELQGNAFDIWGQGTMVTVSS VL: SYELTQPPSVSVSPGQTARITCSGDALPKQYAYWYQQKPGQAPVLVIYKDSERPSGIPERFSGSSSGTTVTLTISGVQAEDEADYYCQSGDSSGTYRVFGGGTKLTVL",≤ 0.0169,≤ 1e-05,591000
"antibody 433 (antibody, V domains shown) VH: QVQLVESGGGVVQPGRSLRLSCAASGFTFSSYAMHWVRQAPGKGLEWVAVISYDGSNKYYADSVKGRFTISRDNSKNTLYLQMNSLRAEDTAVYYCAKDYEVVIAIGGPGAFDYWGQGTLVTVSS VL: SYVLTQPPSVSVAPGKTARITCGGNNIGSKSVHWYQQKPGQAPVLVIYYDSDRPSGIPERFSGSNSGNTATLTISRVEAGDEADYYCQVWDSSSDHVVFGGGTKLTVL",2.8,0.000349,125000
"antibody 400 (antibody, V domains shown) VH: QVQLVESGGGVVQPGRSLRLSCAASGFTFSSYGMHWVRQAPGKGLEWVAVISYDGSNKYYADSVKGRFTISRDNSKNTLYLQMNSLRAEDTAVYYCAKAIDILTGYGPGGMDVWGQGTTVTVSS VL: not shown",1.28,0.000624,488000

# Target: SARS-CoV-2 spike (S) protein (SARS-CoV-2, UniProt P0DTC2 14-1208)
Binder,Kd [nM],koff [s⁻¹],kon [M⁻¹ s⁻¹]
"antibody 336 (antibody, V domains shown) VH: QVQLVESGGGVVQPGRSLRLSCAASGFTFSSYAMHWVRQAPGKGLEWVAVISYDGSNKYYADSVKGRFTISRDNSKNTLYLQMNSLRAEDTAVYYCARAQTDYYDSSGWFDYWGQGTLVTVSS VL: SYELTQPPSVSVSPGQTARITCSGDALPKQYAYWYQQKPGQAPVLVIYKDSERPSGIPERFSGSSSGTTVTLTISGVQAEDEADYYCQSADSSGTPHWVFGGGTKLTVL",1.11,0.00021,190000
"antibody 368 (antibody, V domains shown) V domain 1: QITLKESGPTLVKPTETLTLTCAFSGFSLTKTGEAAGWIRQAPGRALEWVTVIFWDDDKRYSPSLQNRLTVTKDTSKNVVVLTMTNVDPVDTATYFCWAMGGPGKEFFGQGTRVAVSS V domain 2: QSVLTQPPSVSGAPGQRVTVSCTGTSSSIGPYSDVHWYQHIPGKAPRLLIFGTSNRPSGVPARFSGSKSGSSASLVIAGLQAEDEADYYCQSYDSSLGEIYVFGTGTTVTVL",12.7,0.000486,38100
"antibody 360 (antibody, V domains shown) VH: QVQLVESGGGVVQPGRSLRLSCAASGFTFSSYAMHWVRQAPGKGLEWVAVISYDGSNKYYADSVKGRFTISRDNSKNTLYLQMNSLRAEDTAVYYCAKGKNSGSYFFAFDIWGQGTMVTVSS VL: not shown",1.4,0.000145,104000
"antibody 357 (antibody, V domains shown) VH: QVQLVQSGAEVKKPGSSVKVSCKASGGTFSSYAISWVRQAPGQGLEWMGRIIPILGIANYAQKFQGRVTITADKSTSTAYMELSSLRSEDTAVYYCARGPIAVAGIGPWFDPWGQGTLVTVSS VL: QSVLTQPPSVSAAPGQKVTISCSGSSSNIGNNYVSWYQQLPGTAPKLLIYDNNKRPSGIPDRFSGSKSGTSATLGITGLQTGDEADYYCGTWDSSLSAVVFGGGTKLTVL",0.837,6.53e-05,78000
"antibody 387 (antibody, V domains shown) VH: QVQLVESGGGVVQPGRSLRLSCAASGFTFSSYGMHWVRQAPGKGLEWVAVISYDGSNKYYADSVKGRFTISRDNSKNTLYLQMNSLRAEDTAVYYCAKDDTKNYGDLDIDYWGQGTLVTVSS VL: SYELTQPSSVSVSPGQTARITCSGDVLAKKYARWFQQKPGQAPVLVIYKDSERPSGIPERFSGSSSGTTVTLTISGAQVEDEADYYCYSAADNNLGVFGGGTKLTVL",37.4,0.000808,21600
"antibody 354 (antibody, V domains shown) VH: QVQLVESGGGVVQPGRSLRLSCAASGFTFSSYAMHWVRQAPGKGLEWVAVISYDGSNKYYADSVKGRFTISRDNSKNTLYLQMNSLRAEDTAVYYCARDRPYYYGSGIPGYYGMDVWGQGTTVTVSS VL: not shown",43.6,0.00179,41100
"antibody 359 (antibody, V domains shown) VH: QVQLVESGGGVVQPGRSLRLSCAASGFTFSSYAMHWVRQAPGKGLEWVAVISYDGSNKYYADSVKGRFTISRDNSKNTLYLQMNSLRAEDTAVYYCAYSGNYWYFDLWGRGTLVTVSS VL: not shown",0.441,6.67e-05,151000
"antibody 338 (antibody, V domains shown) VH: QVQLQESGPGLVKPSETLSLTCAVSGYSISSDYYWGWIRQPPGKGLEWIGSIYHSGSTYYNPSLKSRVTISIDTSKNQFSLKLSSVTAADTAVYYCARDPGNYDILTGIFDYWGQGTLVTVSS VL: QSALTQPASVSGSPGQSITISCTGTSSDVGVYNYVSWYQQHPGKAPKLMIYDVTNRPSGVSNRFSGSKSGNTASLTISGLQAEDEADYYCSSYTSSSTLAVYVFGTGTKVTVL",0.882,4.43e-05,50200
"antibody 353 (antibody, V domains shown) VH: not shown VL: DIQMTQSPSSLSASVGDRVTITCRASQGISNYLAWFQQKPGKAPKSLIYAASSLQSGVPSKFSGSGSGTDFTLTISSLQPEDFATYYCQQYNSYPPTFGGGTKVEIK",0.0601,4.09e-05,680000
"antibody 356 (antibody, V domains shown) VH: QVQLVQSGAEVKKPGASVKVSCKASGYTFTSYGISWVRQAPGQGLEWMGWISAYHGNTNYAQKLQGRVTMTTDTSTSTAYMELRSLRSDDTAVYYCARVGLWWLGHADAFDIWGQGTMVTVSS VL: DIQMTQSPSSLSASVGDRVTITCRASQGIRNDLGWYQQKPGKAPKRLIYAASSLQSGVPSRFSGSGSGTEFTLTISSLQPEDFATYYCLQHNSYPLTFGGGTKVEIK",3.65,9.66e-05,26500
"antibody 381 (antibody, V domains shown) VH: QVQLVESGGGVVQPGRSLRLSCAASGFTFSSYAMHWVRQAPGKGLEWVAVISYDGSNKYYADSVKGRFTISRDNSKNTLYLQMNSLRAEDTAVYYCARDRQYYDILTGYYLPTSEYYFDYWGQGTLVTVSS VL: DIQMTQSPSSVSASVGDRVTITCRASQGISSWLAWYQQKPGKAPKLLIYAASSLQSGVPSRFSGSGSGTDFTLTISSLQPEDFATYYCQQANSFPPTFGGGTKVEIK",6.66,0.000207,31100
"antibody 358 (antibody, V domains shown) VH: QVQLVESGGGVVQPGRSLRLSCAASGFNLNSYAMHWVRQASGKGLEWVSLMSYDGSIKYYADSVKGRFTVSGDNSRNTLFLQMNSLRPDDSALYYCVRGGVSGPNSFDLWGQGTTVTVSS VL: DVVMTQSPLSLPVTLGQPASISCRSSQSLVYSDGSTYVNWFQQRPGQSPRRLIYKVSNRDSGVPDRFSGSGSGTDFALKISRVEAEDVGVYYCMQGTHWPVTFGQGTKVEIK",1.69,0.000487,289000
